Where no end group is shown, it is not given here.
Tests used:
[1] = biological target: T1, porcine acylamino-acid-releasing enzyme (AARE or APEH) (porcine, UniProt P19205 1-732, limits assumed); assay: enzyme inhibition kinetics, Lineweaver-Burk plot, competitive inhibition
T1 construct: also called porcine APEH; porcine AARE
T1 sequence (looked up): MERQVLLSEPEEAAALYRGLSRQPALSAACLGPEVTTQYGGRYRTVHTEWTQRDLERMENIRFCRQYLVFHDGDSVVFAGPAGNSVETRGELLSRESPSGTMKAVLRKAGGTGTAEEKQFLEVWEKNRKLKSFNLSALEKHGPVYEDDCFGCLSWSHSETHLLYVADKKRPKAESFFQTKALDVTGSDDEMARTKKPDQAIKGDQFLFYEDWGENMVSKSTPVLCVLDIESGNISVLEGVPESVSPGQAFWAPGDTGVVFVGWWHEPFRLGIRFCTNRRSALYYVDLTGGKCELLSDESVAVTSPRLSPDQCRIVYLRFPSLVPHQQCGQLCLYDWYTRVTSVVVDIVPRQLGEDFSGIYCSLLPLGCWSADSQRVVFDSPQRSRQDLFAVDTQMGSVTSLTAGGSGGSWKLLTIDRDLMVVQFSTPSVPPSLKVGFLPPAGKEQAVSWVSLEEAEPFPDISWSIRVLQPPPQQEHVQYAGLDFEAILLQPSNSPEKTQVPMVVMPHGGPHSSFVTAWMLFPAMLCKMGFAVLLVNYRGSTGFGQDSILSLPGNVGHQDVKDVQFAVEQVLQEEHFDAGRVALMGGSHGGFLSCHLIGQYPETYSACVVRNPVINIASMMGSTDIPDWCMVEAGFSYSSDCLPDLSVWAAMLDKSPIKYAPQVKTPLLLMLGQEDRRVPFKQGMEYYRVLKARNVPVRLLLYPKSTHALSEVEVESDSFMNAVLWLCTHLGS

[2] = biological target: T2, human acylamino-acid-releasing enzyme (AARE or APEH) (human, UniProt P13798 1-732, limits assumed); assay: cell-based or functional assay
T2 sequence (looked up): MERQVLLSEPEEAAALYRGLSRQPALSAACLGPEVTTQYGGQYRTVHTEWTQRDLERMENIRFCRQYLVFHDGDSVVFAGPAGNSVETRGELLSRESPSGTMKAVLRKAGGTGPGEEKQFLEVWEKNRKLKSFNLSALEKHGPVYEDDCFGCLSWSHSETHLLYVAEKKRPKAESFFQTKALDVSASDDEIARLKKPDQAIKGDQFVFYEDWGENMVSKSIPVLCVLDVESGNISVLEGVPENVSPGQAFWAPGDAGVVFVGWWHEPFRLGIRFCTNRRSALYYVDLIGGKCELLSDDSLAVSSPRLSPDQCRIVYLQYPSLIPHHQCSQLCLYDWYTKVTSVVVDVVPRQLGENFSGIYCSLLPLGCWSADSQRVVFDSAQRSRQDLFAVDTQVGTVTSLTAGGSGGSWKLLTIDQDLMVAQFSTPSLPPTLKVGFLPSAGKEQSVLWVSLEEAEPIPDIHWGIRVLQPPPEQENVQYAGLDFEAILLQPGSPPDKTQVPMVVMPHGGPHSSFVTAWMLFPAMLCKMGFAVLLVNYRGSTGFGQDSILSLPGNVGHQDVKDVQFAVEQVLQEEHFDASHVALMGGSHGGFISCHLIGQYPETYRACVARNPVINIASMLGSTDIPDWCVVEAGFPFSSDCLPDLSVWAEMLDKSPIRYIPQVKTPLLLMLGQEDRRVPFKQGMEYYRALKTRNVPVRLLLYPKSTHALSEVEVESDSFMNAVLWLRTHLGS

[3] = biological target: T1, porcine acylamino-acid-releasing enzyme …; assay: cell-based or functional assay
[4] = biological target: T1, porcine acylamino-acid-releasing enzyme …; assay: cell-based or functional assay; remark: listed apart in the source
[5] = biological target: T1, porcine acylamino-acid-releasing enzyme …; assay: enzyme inhibition kinetics with N-acetyl-Ala-pNA as substrate
[6] = biological target: T3, porcine elastase (porcine, UniProt P00772 27-266); assay: enzyme inhibition kinetics, double reciprocal plot
T3 sequence (P00772 27-266 limits assumed): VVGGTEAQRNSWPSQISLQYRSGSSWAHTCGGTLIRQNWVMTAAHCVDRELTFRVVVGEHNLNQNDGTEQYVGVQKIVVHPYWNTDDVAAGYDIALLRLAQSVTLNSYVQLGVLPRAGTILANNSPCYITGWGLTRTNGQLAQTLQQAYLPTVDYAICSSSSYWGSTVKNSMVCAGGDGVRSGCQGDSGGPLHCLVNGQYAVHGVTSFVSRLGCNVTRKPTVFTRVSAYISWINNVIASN

[7] = biological target: T4, bovine alpha-chymotrypsin (bovine, UniProt P00766 1-13; P00766 16-146; P00766 149-245); assay: enzyme inhibition kinetics, double reciprocal (Lineweaver-Burk) plot, competitive inhibition
Procedure: The reciprocals of the rate of the substrate hydrolysis for each inhibitor concentration were plotted against the reciprocals of the substrate concentrations. Ki was determined from the formula as per the competitive type of inhibition.

[8] = biological target: T3, porcine elastase; assay: cell-based or functional assay
[9] = biological target: T4, bovine alpha-chymotrypsin; assay: cell-based or functional assay
[10] = biological target: T2, human acylamino-acid-releasing enzyme …; assay: cell-based or functional assay; remark: listed apart in the source
[11] = biological target: T3, porcine elastase; assay: cell-based or functional assay; remark: listed apart in the source
[12] = biological target: T4, bovine alpha-chymotrypsin; assay: cell-based or functional assay; remark: listed apart in the source

TILAEIKNINAD-NH2 (also called Peptide 4) [Compound 4 or SsCEI 4]
Ki [1]: 4000 nM
IC50 [2]: 35000 nM
IC50 [3]: 35000 nM

YAIDTILAEIKNINAD-NH2 (also called Peptide 3) [Compound 3 or SsCEI 3]
IC50 [2]: 25000 nM
IC50 values [4]: 20000 nM
IC50 [3]: 25000 nM
Ki [5]: 20000 nM

B1: recombinant S. solfataricus inhibitor Sso0767 (SsCEI) (other)
chain: MNSESIYSMRVVSSAFKNEDFIPIKYTCDGQDLSPELEWDLVTNAKSYAIIVEDPDAPGGTFIHWVIYNITTNRLPEGVPRLYKSQYGVQGVNDFGNIGYNGPCPPKTHPPHRYYFYVYAIDTILLEIKNINADKLKSLMEGHGIERGFVMGKYKRK
notes: The filling uses Sso0767, Sso1273 and SsCEI for the same protein; also called Sso1273; not shown: C-terminal His tag from expression vector pET-28
Ki [6]: 100 nM
Ki [7]: 80 nM
IC50 [8]: 40 nM
IC50 [9]: 25 nM
IC50 value at 37° C. [10]: 20 nM
IC50 value [11]: 150 nM
IC50 value (50% inhibitory concentration) [12]: 100 nM
